The source of these data is US20260258115A1 (MAPP BIOPHARMACEUTICAL, published 2026).

In assay [1] the target is T1, RSV prefusion F (preF), subtype B (respiratory syncytial virus subtype B).
T1 construct: also called Prefusion subtype B
Kind of assay: BLI, IgG.

The target in assay [2] is T2, RSV postfusion F (postF), subtype B (respiratory syncytial virus subtype B).
T2 construct: also called Postfusion subtype B
Kind of assay: BLI, IgG.

Assay [3] concerns the target T3, RSV postfusion F (postF), subtype A (respiratory syncytial virus subtype A, UniProt P03420 26-513).
T3 construct: also called Postfusion subtype A; F deltaFP
In words: BLI, IgG.

Assay [4] deals with RSV F on RSV subtype B virus (mKate-RSV B 18537) (respiratory syncytial virus B 18537, UniProt P13843 26-574). Kind of assay: cell-based or functional assay.
Assay [5] deals with RSV F on RSV subtype A virus (mKate-RSV A2) (respiratory syncytial virus A2, UniProt P03420 26-574). Kind of assay: cell-based or functional assay.

As usually defined, the Kd is the constant that tells how readily two partners part at equilibrium. A high value points to weaker binding.

B1: ADI-25497 (antibody, V domains shown)
VH: EVQLLESGGGLVQPGGSLRLSCAASGFTFSSYWMSWVRQAPGKGLEWVANIKQDGSEKYYVDSVKGRFTISRDNAKNSLYLQMNSLRAEDTAVYYCARDGLLQYDFWSGYYDYWGQGTLVTVSS
VL: EIVLTQSPSSLSASVGDRVTITCRASQGISSWLAWYQQKPEKAPKSLIYAASSLQSGVPSRFSGSGSGTDFTLTISSLQPEDFATYYCQQYNSYPFTFGPGTKVDIK
notes: full-length IgG
Regarding B1, the Kd came out at 14.1 nM in assay [1], 14.8 nM in assay [2] and 18.4 nM in assay [3].

B2: ADI-19480 (antibody, V domains shown)
VH: EVQLVESGGGLVKPGGSLRLSCAASGFTFSAYSMNWVRQAPGKGLEWVSSISSTTNYISYADSVKGRFTISRDNAKNSLYLQMNSLRAEDTAVYYCARDPKYYGLGTYYKDDYWGQGTLVTVSS
VL: NFMLTQPHSVSESPGKTVTISCTRSGGSIASNYVQWYQQRPGSSPTTVIYEDNQRPSGVPDRFSGSIDSSFNSASLTVSGLKTEDEADYYCQSFDNNNRWVFGGGTKLTVL
notes: full-length IgG
With B2, the “Neut IC50 subtype B” value in assay [4] was 6.25 µg/mL. The Kd in assay [1] came out at 0.383 nM; in assay [2] it was 0.119 nM; in assay [3] it was 0.129 nM.

B3: ADI-14358 (antibody, V domains shown)
VH: QVQLVQSGGGLVKPGGSLRLSCVASGFTFSDYYMTWIRQAPGKGLEWVSYISGSSAYTIYADSVKGRFTISRDNAKNSLYLQMNGLRAEDTAVYYCARVSWVRSLDSWGQGTLVTVSS
VL: QSALTQPASVSGSPGQSITISCTGSTSDVGLYNYVSWYQLHPGKAPKLIIYDVRHRPSGVSDRFSASKSGNTASLTISGLQAEDEADYYCCSYTSSSTYVFGSGTQLTVL
notes: full-length IgG; also called Ab 26
With B3, the Kd in assay [1] worked out at 60.3 nM; in assay [2], 27.5 nM; in assay [3], 0.656 nM.

B4: ADI-14383 (antibody, V domains shown)
VH: QITLKESGPTLVKPTQTLTLTCTFSGFSLSTSGVGVGWIRQPPGKALEWLALIYWDEDKRYSPSLKTRLTITKDTSRNQVKLTMTNMDPVDTATYYCAHQYYDILTGYPSPGAFDIWGQGTTVTVSS
VL: QPVLTQPASVSGSPGQSITISCTGTSSDVVSYNLVSWFQQHPGKAPKLMIYEVTRRPSGVSNRFSGSKSGNTASLTISGLQAEDEADYYCCAYTGTPVVFGGGTKLTVL
notes: full-length IgG; also called Ab 51
Regarding B4, the Kd in assay [1] was 1.75 nM; in assay [2], 0.251 nM; in assay [3], 0.434 nM.

B5: ADI-25547 (antibody, V domains shown)
VH: EVQLLESGGGLIQPGGSLRLSCAASGFTVSSNYMSWVRQAPGKGLEWVSVIYSGGSTYYADSVKGRFTISRDNSKNTLYLQMNSLRAEDTAVYYCARGGIADAFDIWGQGTMVTVSS
VL: ETTLTQSPSSVSASVGDRVTITCRASQGISSWLAWYQQKPGKAPKLLIYAASSLQSGVPSRFSGSGSGTDFTLTISSLQPEDFATYYCQQANSFPRTFGQGTKLEIK
notes: full-length IgG
For the molecule B5, the Kd in assay [1] came to 20.3 nM; in assay [2] it was 23.1 nM; in assay [3], 21.5 nM.

B6: ADI-14360 (antibody, V domains shown)
VH: QVQLVQSGAEVKKPGASVKVSCKASGYTFTTYSMHWVRQAPGQRLEWMGWINAGNGNTKYSQKFQGRVTITRDTSASTAYMELSSLRSEDTAVYYCARDGVGGAYYYGEMDVWGQGTTVTVSS
VL: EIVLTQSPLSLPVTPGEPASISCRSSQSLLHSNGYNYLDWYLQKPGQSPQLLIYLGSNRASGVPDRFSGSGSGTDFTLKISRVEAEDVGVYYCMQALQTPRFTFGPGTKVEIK
notes: full-length IgG; also called Ab 28
For B6, the Kd in assay [1] was 26.8 nM; in assay [2] it was 9.03 nM; in assay [3], 5.88 nM.

B7: ADI-14371 (antibody, V domains shown)
VH: EVQLVESGGGLVQPGGSLRLSCAASGFTFSNYAMTWVRQAPGKGLEWLSSISGSGGSTYYADSVKGRFTISRDNSRNTLYVQMNSLRVEDTAFYYCAKAFYEYGAGSPGDYWGQGTLVTVSS
VL: DIQLTQSPSSLSASVGDRVTITCRASQSIGTNLNWYQQKPGKAPKFLIYAASSLQRGVPSRFSGSGSGSEFTLTISSLQPEDFATYYCQQSYSTLPITFGQGTKLEIK
notes: full-length IgG; also called Ab 39
Consider B7, for which the dissociation constant Kd in assay [1] is 8.43 nM; in assay [2] it was 1.07 nM; in assay [3] it was 1.23 nM.

B8: ADI-14355 (antibody, V domains shown)
VH: EVQLVESGPTLVKPTQTLTLTCTFSGFSLSTSGVGVGWIRQPPGKALEWLAVIYWDDDKTYSPSLKSRLTITKDTSKNQVVLTMTNMNPVDTATYYCARCPAPVYSYGVDVWGQGTTVTVSS
VL: QSALTQPASVSGSPGQSITISCTATSSDFGGYDYVSWYQQHPGEAPKLMISDVTNRPSGVSNRFSGSKSGNTASLTISGLQAEDEADYYCSSYTSYTTPYVFGTGTKLTVL
notes: full-length IgG; also called Ab 23
Consider B8, for which the “Neut IC50 subtype B” value in assay [4] was found to be 4.72 µg/mL. In addition, the Kd in assay [1] was found to be 1.25 nM; in assay [2], 0.37 nM; in assay [3], 0.48 nM.

B9: ADI-22759 (antibody, V domains shown)
VH: EVQLLESGGGLVKPGGSLRLSCAASGFSFSSYTMNWVRQAPGKGLEWVSSITGGSSYIDYAGSLKGRFTISRDNAKNSLYLQMNSLRVEDTAVYYCARDFPNIAVGGKTLDYWGQGTLVTVSS
VL: QPVLTQPPSVSGAPGQRVTISCTGSSSNIGAGYDVHWFQQLPGTAPKLLIYVNNNRPSGVPDRFSGSKSGTSASLAITGLQAEDEADYYCQSYDRLSAVVFGGGTKVTVL
notes: full-length IgG
Regarding B9, in assay [4], the “Neut IC50 subtype B” value is 0.2 µg/mL. In assay [5], the “Neut IC50 subtype A” value worked out at 0.08 µg/mL. Also, the Kd in assay [1] is 0.353 nM; in assay [2], 10.1 nM; in assay [3], 25.3 nM.

B10: ADI-14361 (antibody, V domains shown)
VH: EVQLLESGGGFVQPGGSLRLSCAASGFTFSSYAVNWVRQAPGKGLEWVSLISGSGRTDYTDSVKGRFTISRDNAKNTLFLQMNSLRVEDTAVYYCAKSWGSSGYGYLDYWGQGTLVTVSS
VL: QSGLTQPPSVSGAPGQRVTISCTGSSSNIGPGTDVHWYQHFPGTAPKLLIFGNSNRPSGVPDRFSGSKSGTSASLAITGLQAEDEAYYYCQSYDRTLSASVFGGGTKLTVL
notes: full-length IgG; also called Ab 29
Take B10: the figures for the dissociation constant (Kd) in assay [1], in assay [2] and in assay [3] were 52.8 nM, 0.293 nM and 0.437 nM, respectively.

B11: ADI-14350 (antibody, V domains shown)
VH: EVQLVESGPGLVKPSETLSLTCTVSGDSVSNNNYYWNWIRQSPGKGLEWIGYIYYSGSTDYNPSLKSRVTISVDTSKNQFSLNLRSVTAADTAIYFCASAPWGMFTILGVVP
VL: QSVLTQPPSVSGAPGQRVTISCTGSSSNIGAGYDVHWYQQLPGTAPKLLIYGSSNRPSGVPDRFSGSRSGTSASLAITGLQAEDEADYYCQSYDGSLGVYVFATGTKVTVL
notes: full-length IgG; also called Ab 18
For B11, the “Neut IC50 subtype B” value in assay [4] amounted to 4.82 µg/mL. For the same molecule, the Kd in assay [1] is 0.574 nM; in assay [2], 0.148 nM; in assay [3] it was 0.264 nM.

B12: ADI-14365 (antibody, V domains shown)
VH: QVQLVQSGAEVKKPGASVKVSCKVSGYTLTKLSMHWVRQAPGKGLEWMGFFDPEDGDTLYAQKFQGRVTMTEDTSSDTPYMELRSLRSEDTAVYYCASPAAAGQFDYWGQGTLVTVSS
VL: DIVMTQSPSSLSASVGDRVTITCRASQFISSYLHWYQQKTGKAPKLLIYAASSLQSGVPSRFSGSGSGTDFTLTISSLQPEDFATYYCQQSYNTPRTFGQGTKLEIK
notes: full-length IgG; also called Ab 33
Turning to B12, the “Neut IC50 subtype B” value in assay [4] is 0.49 µg/mL. The “Neut IC50 subtype A” value in assay [5] stood at 0.8 µg/mL. In addition, the Kd in assay [1] is 0.962 nM; in assay [2], 22.3 nM; in assay [3], 10.3 nM.

B13: ADI-14368 (antibody, V domains shown)
VH: EVQLVESGGGLVKPGGSLRLSCAASGFTFINAWMSWVRQAPGKGLEWVGRIKSKADGGTTDDAAPVKGRFTISRDDSKNTLYLQMNSLKIEDTAVYYCATDVLPLYNWNLGWNFDLWGRGTLVTVSS
VL: SYVLTQPPSVSVAPGKTARITCGGNNIADKSVHWYQQKPGQAPVLVMYYDTDRPSGIPERFSGFNSGNTATLTISRVEAGDEADYYCQVWDSSSDHVVFGGGTKVTVL
notes: full-length IgG; also called Ab 36
In the case of B13, the “Neut IC50 subtype B” value in assay [4] was 1.1 µg/mL. For the same molecule, the Kd came out at 1.21 nM in assay [1], 17.7 nM in assay [2] and 24.5 nM in assay [3].

B14: ADI-14341 (antibody, V domains shown)
VH: QVQLVQSGGGLVQPGGSLRLSCAGSGFTFSDYEMNWVRQAPGKGLEWLSYISSSGSIIYYADSVKGRFTISRDNAKNSLYLQMNSLRAEDTGLYYCARANHRHYYGMDVWGQGTTVTVSS
VL: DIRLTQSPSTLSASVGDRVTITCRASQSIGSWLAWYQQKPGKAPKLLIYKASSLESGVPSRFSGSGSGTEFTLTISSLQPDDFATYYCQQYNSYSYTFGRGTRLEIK
notes: full-length IgG; also called Ab 9
With B14, in assay [4], the “Neut IC50 subtype B” value was 17.5 µg/mL. Besides, the Kd stood at 0.612 nM in assay [2] and 0.713 nM in assay [3].

B15: ADI-14338 (antibody, V domains shown)
VH: EVQLVESGGGVVQPGRPLRLSCAASGFTFSTYDLYWVRQAPGKGLDWVAIISPDGNKKYYADSVKGRFTISRDNSKNTLFLHMNSLRAEDTAVYYCARDYGNYFGSGSYYRYFDLWGRGTLVTVSS
VL: DIQLTQSPSSLSASVGDRVTITCRASQSISSHLNWYQQKPGKAPKLLIYASSSLQSGVPSRFSGSGSGTDFTLTISGLQPEDFATYYCQQSYSTPFTFGPGTKVEIK
notes: full-length IgG; also called Ab 6
Consider B15, for which the “Neut IC50 subtype B” value in assay [4] turned out to be 10.2 µg/mL. The dissociation constant (Kd) is 7.04 nM in assay [1], 3.14 nM in assay [2] and 5.98 nM in assay [3].

B16: ADI-14375 (antibody, V domains shown)
VH: EVQLVESGGGLVQPGGSLRLSCAVSGFTFSNYAVSWVRQAPGKGLEWVSGISGSGGTTYYVDSVKGRFTVSRDNSKNTLFLQLNSLKAEDTAVYYCAKDWGYSGGRPYFDYWGQGTLVTVSS
VL: QSVLTQPPSVSGAPGQRVTISCTASSSNIGPIYDVHWYQQLPGTGPKLLIYGNNNRPSGVPDRFSGSKSGTSASLAITGLQAEDEADYYCQSYDTSLSVVFGGGTKLTVL
notes: full-length IgG; also called Ab 43
For B16, the results for the Kd in assay [1], in assay [2] and in assay [3] were 3.21 nM, 3.31 nM and 0.477 nM, respectively.

B17: ADI-19482 (antibody, V domains shown)
VH: QVQLQQWGAGLLKPSETLSLTCGAFHGSFSGYYWSWIRQPPGKGLEWIGEVTHSRSTNYNPSLKSRITISVDTSRNQFSLKLNSVTAADTAVYYCARGSGEWYFDIWGRGTLVTVSS
VL: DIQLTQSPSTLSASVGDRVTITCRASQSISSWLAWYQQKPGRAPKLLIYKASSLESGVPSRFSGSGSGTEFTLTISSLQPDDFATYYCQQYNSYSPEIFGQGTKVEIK
notes: full-length IgG
Take B17: the “Neut IC50 subtype B” value in assay [4] amounted to 2.24 µg/mL. For the same molecule, the “Neut IC50 subtype A” value in assay [5] is 1.49 µg/mL. Also, the Kd was 1.89 nM in assay [1], 0.555 nM in assay [2] and 1.71 nM in assay [3].
